Laboratory results: the supplement of paper PMC12764529
± gives the half width of the 95% confidence interval.

assay: folding stability dG unfold (combined trypsin and chymotrypsin); higher = more stable
Procedure, shortened: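 K50 was inferred by Bayesian fitting of sequencing counts obtained after protease digestion of designed mini-proteins. Unfolding free energy was derived by comparison with a sequence-predicted unfolded-state K50 and a shared folded-state K50, for each protease or both combined. The mini-proteins were under 80 residues, had no cysteine, were carried in a PA-tagged cDNA display construct, and were kept only if AlphaFold2 dimer inter-PAE exceeded 15.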

First: SAPKLEIEEVHVNPNDGMVMITFQIDNLPPGLKITIKPKNGKPRRWTGEPGKPIMFMIPPGVDDIEIEWSAG [r14_671_TrROS]
Second: SAGGSAGGSEMEVKVTVEPAPAGAPPGAVVRVEVEFEDGFRITVRFTFVDGKLRAEVTEIKPVSAGGSAGGS [r12_1049_TrROS_Hall]
The “folding stability dG unfold” value of the first is lower: 1.94 ± 0.15 kcal/mol for the first, 3.37 ± 0.1 kcal/mol for the second.

“SAGGSAGGSAGGMKTIVFTTLSPEEAQALADELKAKGVDVEVTYEPVPVTPRPLPLNRLSAGGSAGGSAGGS [r10_361_JUSTAS]” and “SAGLKFSITKAEWENGYLTVKVMVTGPDGQSQPFTITIRIKPVPKPPPKMTEEKDPNGKKKWEYKDPDSAGG [r19_172_TrROS]” are within error of each other in “folding stability dG unfold” value: 2.57 ± 0.097 kcal/mol for the first, 2.47 ± 0.24 kcal/mol for the second.

Compared with “SAGGSAGGSAGGKMWIMIPKNEPINLPPGFDKVEIMTNPDDGYVMIRVDSPEDFKRLLEASAGGSAGGSAGG [r7_172_TrROS]”, “SAGGMLPLVVKVKTPDGEEYTFVVAYNPETSELWLPLPKEPTWRNVPLTEASSIPEFQIVEARPLALESAGG [r13_994_TrMRF]” is lower in “folding stability dG unfold” value: 1.2 ± 0.065 kcal/mol for the first, 0.761 ± 0.087 kcal/mol for the second.

First: SAGGSAGGWPLMVEYTPPGDGKTQTYPIPIKGPLSEIKDQIKENMPPGFREVEISPANIEKILKSAGGSAGG [r6_889_TrROS]
Second: SMVTVDEKEDPNSDNKIYTVSLPENGEDVITITKAPDGTTTVTLHYPDGSTTTKTFPGNTPVTEAIKLLLSA [r9_346_JUSTAS]
The “folding stability dG unfold” value of the first is lower: < -1 kcal/mol for the first, 1.74 ± 0.15 kcal/mol for the second.

Compared with “SAGGSAGGLEEELKLAKENPGEFEGVTVKLESVIEVTTTDPTTGKPTTKLVRVESEITFPPGLKSAGGSAGG [r6_560_JUSTAS]”, “SAPKNYRFKIYFPNGVEFTIPPGWDLEIEEFDPEDGVIRIKMTRYDKDDGKPVEKHDFPFPFRILEPDPSAG [r14_927_TrROS]” is higher in “folding stability dG unfold” value: 0.834 ± 0.2 kcal/mol for the first, 1.89 ± 0.25 kcal/mol for the second.

Compared with “SAGGETKTITIKVDGKLVTITVKKNKNGEELVTVKVYENGKLVEEVTMSKDELEELAKKLGLSVEELKSAGG [r13_108_TrROS_Hall]”, “SKEEEEEIEIEIVVPNLTEEEIKELAKELLEKKGYEVEEIEITEEELEELKNKKPGDEVVIKIKIKVKKKSA [r9_1163_TrROS_Hall]” is lower in “folding stability dG unfold” value: 3.62 ± 0.1 kcal/mol for the first, 2.51 ± 0.2 kcal/mol for the second.

Compared with “SDKIKNMTIEEILKKLPKGVKVGEKVEIEIDGKKITITKVEVVKDKNGKEIKRIYIEVEIDGEKIIIEIESA [r9_279_TrROS_Hall]”, “SAGGVPVPPEVEYPISPEAVELAEKLAPELGAKNFKVTVVSVEPGYITVEITLPDTGKTVTVTIPLGSAGGS [r16_281_JUSTAS]” is lower in “folding stability dG unfold” value: 2.69 ± 0.46 kcal/mol for the first, 1.82 ± 0.053 kcal/mol for the second.

Going from “SAGGSAGGNMIPVKARMKWPDGKEFPFEIMVQYQPDGQMQIEIQNPGDGETVTFPNMKLIDVEISAGGSAGG [r6_255_TrROS]” to “SAGGSPVLKVEVFELEEDKLLLKIYFPKEEAGLTPEQKEALAKAIQELFPNTKAFTTDEELYIVVDSAGGSA [r2_256_TrMRF]”, the “folding stability dG unfold” value rises from 0.469 ± 0.06 kcal/mol to 2.37 ± 0.12 kcal/mol.

Going from “SAGKKIKLELYFEENGLKVEVEFDEETGVITVKVELKDGTRIEAKFELLPDGTLKLEIKIEKVKPGEKPSAG [r5_766_TrROS_Hall]” to “SAGGSAGGSAGGMPADEKVTTSPEIVTLPNGTRVVVTKSTSPDPSVSSTSVTVLPPNVPPSAGGSAGGSAGG [r11_338_JUSTAS]”, the “folding stability dG unfold” value falls from 3.49 ± 0.46 kcal/mol to 1.05 ± 0.066 kcal/mol.

Compared with “SAGGSAMLRVFEKEHPGPFSITVLAGPGLSEEEIEELAEKLAEKKIEIEKKKIELEKKGKKPIFKKSAGGSA [r15_704_JUSTAS]”, “SAGGSAGGSAGGWVIRVTIKHPNGKKRTIMIPMPPDNIEEVAKNLMPQGYEIKEPEIFPGSAGGSAGGSAGG [r7_159_TrROS]” is higher in “folding stability dG unfold” value: 0.0936 ± 0.43 kcal/mol for the first, 0.813 ± 0.26 kcal/mol for the second.

First: SAGGKKVEITIEASPEEAEELAKKLEELFPDVKVEVVEVKPEEPVRVTVRVEVKVELSPEELKKLLESAGGS [r16_180_TrROS_Hall]
Second: SAKKTITITKITLTLFNKDGKPVATAEITSIEITYDPKTNTFTITATVKVTLPNGKTFTFKLTITLPVKSAG [r14_609_TrROS_Hall]
The “folding stability dG unfold” value of the first is lower: 1.4 ± 0.14 kcal/mol for the first, 4.55 ± 0.41 kcal/mol for the second.

First: SAGGSAGGSAGFFRVDIDIMMSPEMLDLMKKNPGLPPGQEIPIMVVIKREPVPYDPNGKLSAGGSAGGSAGG [r17_194_TrROS]
Second: SAGGSSPLLSPVTLTREVPASEPMAPEEVEAFAAAVAAEVAAAGMTVDFSVERHPDREVLTVTVTVASSAGG [r13_442_JUSTAS]
The “folding stability dG unfold” value of the first is higher: 1.8 ± 0.051 kcal/mol for the first, 0.373 ± 0.056 kcal/mol for the second.

First: SAGATATPPAVRVATARLPLPFGTGTEVTVTTYSDGSATVTARFPDGVVATAFVSPDGSAVVTVAPAGGSAG [r5_168_TrMRF]
Second: SAGGMPEDMKLKFKVVDFRPHPHPDGYQIVELFYNDKLLRRLRVPPGLAVKLAKELPEDVALVTLPESAGGS [r8_41_TrMRF]
The “folding stability dG unfold” value of the first is higher: 2.41 ± 0.061 kcal/mol for the first, 1.28 ± 0.09 kcal/mol for the second.

Compared with “SAGGSAGGSALEVPSNYLVEVRFPNETRLIPVEDLDAFFEAYPDVPWTDIRVLDPKTGKPISAGGSAGGSAG [r3_134_TrMRF]”, “SAGGSAGGSAGKAKIEVVEVDKNGKVRLKIKLENGEVKEIENADEITINGKKIKVEKIEPSAGGSAGGSAGG [r11_1017_TrROS_Hall]” is lower in “folding stability dG unfold” value: 2.19 ± 0.032 kcal/mol for the first, 1.11 ± 0.1 kcal/mol for the second.

First: SAGGSAGGSKYYRVRFKEEIEITLENGEKLKIKKGDVIVVPSKEDLDRLKALFPNLEVEVEPVSAGGSAGGS [r12_987_TrROS_Hall]
Second: SVEKARERLEKLGFKLVSVDPLEDGSVVLTFEFPDNKVVVLVDEDGNARIVAYNPSDGKFSEATFNLDDLSA [r9_2_TrMRF]
The “folding stability dG unfold” value of the first is higher: 3.7 ± 0.099 kcal/mol for the first, 2.7 ± 0.038 kcal/mol for the second.

First: SAGGSAGGSAGLEIKIPNGNKTITVEKTKDYYKATIYFPETGEKVEFTFPPNVSLSLLDISAGGSAGGSAGG [r11_772_TrMRF]
Second: SAGGSAGGSAGPIDPNSTRPVPADYVVIRIRGDEKPRYFVVHPEYAKEFAERHGAELYYESAGGSAGGSAGG [r17_109_TrMRF]
The “folding stability dG unfold” value of the first is higher: 1.62 ± 0.18 kcal/mol for the first, 0.44 ± 0.076 kcal/mol for the second.
